In series [1] the test system is HPV-16 enhancer in SiHa cells. As to the kind of experiment: Chip assay of H3K9me2 and H3K27me3 at the targeted enhancer. The following applies: harvested after 5 days. The class given is cell-based. The method, then: FIG. 13: Elucidating the mechanism of transcriptional gene silencing: (A) SiHa cells untreated or treated with TSA were transfected with NFκB+PLAP enhancer-promoter chimera expressing test & scrambled shRNA and harvested after 5 days. Chip was performed with antibodies against H3K9me2 and H3K27me3; antibodies against RNA polymerase and mouse IgG were respectively used as positive and negative controls for pull down. Input and immuno-precipitated DNA were measured by PCR with requisite primers and the enrichment at enhancer region was further quantified by qPCR.
Using chip assay, we assessed the level of histone H3K9 dimethylation (H3K9me2) and H3K27 trimethylation (H3K27me3), two repressive epigenetic marks shown to increase as a result of TGS.

Series [2] concerns PLAP positive cell lines (HeLa, SiHa, CaSki, Caco-2). Description: Dual luciferase reporter assay of promoter/enhancer-promoter constructs in PLAP positive cell lines. The class given is cell-based, human. The following applies: for transcriptional activity (relative luciferase activity over pGL3-Basic): PLAP positive cell lines, 48 hours post transfection, normalised by Renilla; for tissue specificity of luciferase expression: PLAP positive versus PLAP negative cell lines; for tissue specificity of luciferase expression / trend of construct activity (strength): FIG. 6; for trend of construct activity (strength): luciferase reporter constructs. Here is the method: (§1) All transfections were performed using Lipofectamine™ 2000 transfection reagent according to manufacturer's instruction (Invitrogen). Briefly, (1×10^6/well) cells were cultured in 6-well plates overnight. The luciferase reporter vectors (PLAP-luc, NFκB+PLAP−luc & pG13 Basic; 1 μg well^−1) were co-transfected in 20:1 ratio with Renilla luciferase expression vector (pRL-TK), an internal control for normalisation of the transcriptional activity of the reporter vectors. Forty-eight hours post transfection, the cells were lysed and luciferase activities were assayed using Dual Luciferase Assay reagents (Promega) according to manufacturer's protocol. All transfections were performed in triplicate and all experiments were repeated at least twice.
(§2) The region of PLAP promoter spanning from −170 to +24 containing invariant TATA boxes (nucleotides −31 to −25) & Sp1 binding sites (nucleotides −84 to −76) cloned in promoter less luciferase expression vector PGL3 basic was transfected in battery of PLAP positive cell cervical cell lines (HeLa, SiHa and CaSki) and appropriate PLAP negative cell lines HepG2 (Hepatoma) & CHO. Promoter activity was assayed in these in vitro model systems by dual luciferase assay.
(§3) To develop an optimal enhancer-promoter system for improving the transcriptional activity of PLAP promoter a fusion construct comprising of PLAP promoter & tetramer of NFKB binding sites cloned in PGL3 basic was evaluated by dual luciferase assay in the above mentioned cell lines. Furthermore, we compared the transcriptional activity of PLAP promoter/enhancer systems with strong SV40 virus promoter (PGL3 C).
(Reporter assays use an easily measured gene product as a stand-in for the process of interest.)

For series [3], the system named is PLAP negative cell lines HepG2 (Hepatoma) & CHO. Description: Dual luciferase reporter assay of promoter/enhancer-promoter constructs in PLAP negative cell lines. The class given is cell-based. Conditions: PLAP negative/control cell lines HepG2 & CHO, 48 hours post transfection. Here is the method: as §1, §2, §3
Setting [4] is: listed as NFκB+PLAP promoter enhancer systems.

“Also recorded” adds a separate entry of the source.

`CC(/C=C/C(=O)NO)=C\[C@@H](C)C(=O)c1ccc(N(C)C)cc1` [trichostatin]: the “levels of H3K9me2 and H3K27me3 at the targeted enhancer” value in series [1] was “reduced this enrichment”.

B1: PLAP promoter: human PLAP promoter region −170 to +24 cloned in promoter less luciferase expression vector pGL3 Basic (nucleic acid, listed as Homo sapiens)
DNA: AAGCTGCCTTTCTCAGGACCCCAGCCCCAGCCCAGCCCAGCCACACCCTGCGACTCTCTTCAGCCAGTGTGGCTTCAGGTCAAGAGGCTGGGCGGGGTCAAGGTGGTAACAAGGGGAGGGGCCAGGACACAGTTTTCCCTGATTTAAACCCAGGCAGCCTGGAGTGCAGCTCATACTCCATACCTGGGATTTCCGC
modifications: in pGL3 Basic luciferase vector; DNASequence (1)..(196) Unique PLAP promoter Sequence
notes: human PLAP promoter region −170 to +24 cloned in promoter less luciferase expression vector pGL3 Basic
For the molecule B1, in series [2], the “transcriptional activity (relative luciferase activity over pGL3-Basic)” value is recorded as “of optimum level only in carcinoma cell lines expressing PLAP; also recorded: selective transcriptional activity in all the PLAP positive cell lines”, the “tissue specificity of luciferase expression” value is on record as “tissue selective expression” and the “trend of construct activity (strength)” value is given as “NFκB−PLAP Pr>SV40 Pr>PLAP Pr”. In addition, in series [3], the “transcriptional activity (relative luciferase activity over pGL3-Basic)” value is “little or no activity in the control cell lines; also recorded: not in PLAP negative cell line”.

B2: NFKB−PLAP enhancer-promoter system: tetramer of NFκB DNA binding sites (GGGAATTTCC) upstream of PLAP promoter −170 to +24 in pGL3 Basic luciferase vector (nucleic acid)
DNA: GGGAATTTCCGGGAATTTCCGGGAATTTCCGGGAATTTCCAAGCTGCCTTTCTCAGGACCCCAGCCCCAGCCCAGCCCAGCCACACCCTGCGACTCTCTTCAGCCAGTGTGGCTTCAGGTCAAGAGGCTGGGCGGGGTCAAGGTGGTAACAAGGGGAGGGGCCAGGACACAGTTTTCCCTGATTTAAACCCAGGCAGCCTGGAGTGCAGCTCATACTCCATACCTGGGATTTCCGC
modifications: in pGL3 Basic luciferase vector; Enhancer (NFKB)-Promoter (PLAP) Sequence.
Take B2: the “transcriptional activity (relative luciferase activity over pGL3-Basic)” value is “selective transcriptional activity in all the PLAP positive cell lines; also recorded: highly comparable to that of strong SV40 virus promoter” in series [2], “of optimum level only in carcinoma cell lines expressing PLAP” in series [2] (setting [4]), “not in PLAP negative cell line” in series [3] and “little or no activity in the control cell lines” in series [3] (setting [4]). Besides, in series [2], the “tissue specificity of luciferase expression” value is given as “tissue selective expression”. For the same molecule, in series [2], the “trend of construct activity (strength)” value is given as “NFκB−PLAP Pr>SV40 Pr>PLAP Pr”.

The record behind these values is patent publication US9868960B2, “Placental like alkaline phosphatase (PLAP) promoter mediated cell targeting” (priority 2013, dated 2018).
